Data on one molecule can be found in publication PMC12331092 (2025).

Square brackets hold non-standard residues; d marks the D form. Ends that are not written are not given here. pT = C[C@@H](OP(=O)(O)O)[C@H](N)C(=O)O; pS = N[C@@H](COP(=O)(O)O)C(=O)O

In test [1] the target is T1, Rattus norvegicus wild-type β-arrestin2 (Rattus norvegicus, UniProt P29067 1-410). Briefly: ITC; site I (KD1).
The target in test [2] is T1, Rattus norvegicus wild-type β-arrestin2. Briefly: ITC; site II (KD2).

T1 sequence (P29067 whole entry): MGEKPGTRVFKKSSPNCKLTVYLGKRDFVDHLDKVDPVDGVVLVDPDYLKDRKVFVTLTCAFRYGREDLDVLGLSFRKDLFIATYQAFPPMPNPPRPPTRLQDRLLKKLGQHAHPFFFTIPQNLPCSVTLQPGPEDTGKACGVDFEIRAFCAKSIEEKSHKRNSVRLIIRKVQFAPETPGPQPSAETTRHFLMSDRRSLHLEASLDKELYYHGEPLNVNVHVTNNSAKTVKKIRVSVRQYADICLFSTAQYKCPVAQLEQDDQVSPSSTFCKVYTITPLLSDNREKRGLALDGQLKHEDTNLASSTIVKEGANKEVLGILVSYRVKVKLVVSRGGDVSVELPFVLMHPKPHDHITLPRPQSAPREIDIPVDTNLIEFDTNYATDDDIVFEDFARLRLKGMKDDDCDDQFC

B1: C7pp2, phosphopeptide from the carboxyl terminus of CXCR7 (residues 346-359) (peptide)
peptide: ASRV[pS]E[pT]EY[pS]ALEQ
Regarding B1, the Kd in test [1] was 0.0799 µM; in test [2] it was 3.32 µM.
